Data taken from the RNAGym collection of RNA variant scans (doi:10.1073/pnas.2313332121).
Fewer inactive variants are shown than the library holds.

B1: TPR 5TU (parent)
chain: GGAUCUUCUCGAUCUAACAAAAAAGACAAAUCUGCCACAAAGCUUGAGAGCAUCUUCGGAUGCAGAGGCGGCAGCCUUCGGUGGCGCGAUAGCGCCAACGUUCUCAACUAUGACACGCAAAACGCGUGCUCCGUUGAAUGGAGUUUAUCAUG

Variants of: B1
Experiment: polymerase ribozyme fitness, log enrichment relative to wild type (log ratio); higher = more active; in vitro selection for triplet polymerase activity
In short: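 To select mutant libraries of each subunit of a heterodimeric triplet polymerase ribozyme, built by PCR and transcribed, each was annealed with a biotinylated primer, partner subunit and triplets, then incubated frozen at −7 °C. Extended constructs were gel-excised, captured on streptavidin beads and amplified by RT-PCR, in one round carried out in triplicate. Illumina sequencing of input and output libraries kept genotypes with ≥10 input reads and ≥1 read per output. Fitness is the base-2 logarithm of genotype enrichment relative to wild-type enrichment, from inverse-variance-weighted replicate averages.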

| Variant | polymerase ribozyme fitness (log ratio) |
| --- | --- |
| G34C G59A G112U A115U C125U | ≤ -4.2 |
| C54G U109C C116U C131U A147U | -1.86 |
| G84A G133C G141C | -2.83 |
| G59U C99U U104G G128U U134A G136U A138G | ≤ -4.2 |
| C38U U55A A60G C75G C76G A115U A122U C125G | ≤ -4.2 |
| C76G G88C | ≤ -4.2 |
| U134A A142G | -3.04 |
| C87U C114G | -2.79 |
| U4A C85U | -1.53 |
| G25A A26G A40G A47C C85A C116G A119C | ≤ -4.2 |
| A41C C69A | -2.53 |
| U82G G84A G86U C118G | ≤ -4.2 |
| A20C C36A A49U U56G A91U U146C | ≤ -4.2 |
| G140U A147U | -2.9 |
| C5U A73U G83A | -0.929 |
| A47G U102C A142C C149U | ≤ -4.2 |
| C63U G81C U82C U102G U104A C108A A150C | ≤ -4.2 |
| A21G A49C G81A G141A | ≤ -4.2 |
| G48U C85A U127C | -2.74 |
| A37U A52G C76A C96U C131G | ≤ -4.2 |
| C93A A142G | -2.77 |
| G46C A47G G71A C85U G88C | ≤ -4.2 |
| C10U C118U | -2.81 |
| A16C G84A C105G C114U C125A U144A U151G | ≤ -4.2 |

| Variant | polymerase ribozyme fitness (log ratio) |
| --- | --- |
| G126A G143A | -1.92 |
| G74U C85G | ≤ -4.2 |
| A98U G136C | -3.87 |
| A60U A106G | -0.0172 |
| C38A C96U C99U | -0.43 |
| A23U A29C C51U G68U C72G G94C G136A A147C | ≤ -4.2 |
| A20U A29U C43U A47G A49C C54G C95U C105A U145G A147G | ≤ -4.2 |
| C14A A23C A66U C93A G128U U151A | ≤ -4.2 |
| C5A U9G C93G C103A C108G A113G A137G | ≤ -4.2 |
| C54U C57G G84U C85U C132U | -3.94 |
| C76U C95A C96U U151G | ≤ -4.2 |
| U44A C76U | -4.19 |
| G48U C116U | -0.65 |
| C38A G94U G143U | ≤ -4.2 |
| U55G U134A U139A | ≤ -4.2 |
| G81A C118A U148C | -2.6 |
| C76A G86U | -1.75 |
| A37U C96U G126U | -2.91 |
| A20C A73G C87G C114U G141A | ≤ -4.2 |
| U7A C14A A23C C75G C85U | ≤ -4.2 |
| A20U G48A A60G U139A A142C A147G | ≤ -4.2 |
| A137U | -3.39 |
| C14A A40C G92C G143A | ≤ -4.2 |
| U15A C32A U56G G58U G84U C108U U139G | ≤ -4.2 |

| Variant | polymerase ribozyme fitness (log ratio) |
| --- | --- |
| A52G G88U | ≤ -4.2 |
| A20C A47C | -0.462 |
| A21U U77G U78C G84A | ≤ -4.2 |
| A91G A121U | -3.01 |
| U4A A37C U61A A66G G133U U144A | ≤ -4.2 |
| U31A U56A G86A A97C C105A U145C | ≤ -4.2 |
| C10G A20U C35A C85G A142C | ≤ -4.2 |
| C14A A23G A26U C43U C54U C57A C96G G143A | ≤ -4.2 |
| U15C A20U A41U C57G A98G | -1.74 |
| A52C C54A | ≤ -4.2 |
| U7G G11C U33C A64U C96A A122G G124A G140U | ≤ -4.2 |
| C93G C149U | -4.08 |
| A28U C54G C72U | ≤ -4.2 |
| U56A U102G | -2.4 |
| G59C G86C C118A | -2.85 |
| C32U U33A U151A | -4.18 |
| G50U C87U G136U | -2.29 |
| C5G U9C A16C A28G A30U C32G C35A G59U G92U C105U G143C | ≤ -4.2 |
| C96G A110G | -3.11 |
| U44G G59C U78C G117U G143C | ≤ -4.2 |
| U9C A30G A66C G84A A150C | ≤ -4.2 |
| C36A A121U | -3.23 |
| A66G G68C U102A | ≤ -4.2 |
| U7G G48C G84A | -3.94 |

| Variant | polymerase ribozyme fitness (log ratio) |
| --- | --- |
| A17G C38A U45A C69A C85U A142C C149U U151G | ≤ -4.2 |
| C5G U9A C54U U146C | -2.79 |
| U9A A23U U77A | ≤ -4.2 |
| A19U C85G G92U C123U | -2.54 |
| C14U C87U U101C C118G | -3.29 |
| A3U U7A C8A C63U U90G | ≤ -4.2 |
| U55A U82C | -0.191 |
| C79U C85U | -1.94 |
| A21C A30C A41U A64U C103G A115C A119C G128A G133U | ≤ -4.2 |
| A28U A41C C75U G81A C103G C149G | ≤ -4.2 |
| C96U G133A | -3.92 |
| C35U G136A G143U | -3.68 |
| G81C C132G | -3.75 |
| C95A C96A | -2.33 |
| U90A G94U C95U C116G C118G C123G | ≤ -4.2 |
| C38A A122U A137G G141U A142G | -3.83 |
| A49C C79U U151G | ≤ -4.2 |
| A16G A17G U56G U61G G68A C72U C114G G143U | ≤ -4.2 |
| C96A G112C | -3.31 |
| A21U G88A | -3.62 |
| G25A A37G C54A C87G | ≤ -4.2 |
| U55A G124A | -0.272 |
| A37G G94A | -1.49 |
| A22U A47C C54G G58U | -0.551 |

| Variant | polymerase ribozyme fitness (log ratio) |
| --- | --- |
| G46U C93U | -0.878 |
| C27U C43A A97U A150G | ≤ -4.2 |
| C18G C57A U134G U145A | -3.18 |
| A3C C32U G59A | -3.67 |
| U82A U146A | -0.606 |
| C96U G126A | 0.845 |
| A39C C63A A64U G84A C93G C116G | ≤ -4.2 |
| A24C G65A G84C A97G G100U C108G G141C | ≤ -4.2 |
| G86A G143A | -1.25 |
| U56G G81U A91G | -3.38 |
| A3U A22G C43U G68A U78G G92A A107U A110G A113G U151C | ≤ -4.2 |
| A21U U53A C57U G83A C95U | -4.06 |
| G84A C114G G124A U134C | -3.53 |
| A60U C87A C95A C108A A110G | -4.07 |
| A26G A49C A89U G92A U102G G140U | ≤ -4.2 |
| U55A U144A | -0.497 |
| A89U G94C A98G A150G | -2.68 |
| G50C U55G C63A C76G A91G C125G U145C | ≤ -4.2 |
| G84A U135A | -1.69 |
| G34A G67U U77C A89C U101G C116G U151C | ≤ -4.2 |
| A26U U33A A47G G62A G94U C105U A110U | ≤ -4.2 |
| U45G C54U A119U U146G | -2.19 |
| C8A U55A A66C G67U U77A C99U C108U G133C G136A | ≤ -4.2 |
| G25A U82C C105G A121U | -4.07 |

| Variant | polymerase ribozyme fitness (log ratio) |
| --- | --- |
| A73G C118G C132G | ≤ -4.2 |
| C8A C14G U53C G58A G62C C85G | ≤ -4.2 |
| A26U C75U | -3.23 |
| A41C C87U | -1.35 |
| A52G C57G C87U | -1.27 |
| A37U G59C C149G | ≤ -4.2 |
| G58A | 0.338 |
| A20C U53A C54A G59A G84A G124C | -2.39 |
| U53G U56A G94C A115C C123G | -3.89 |
| A30G G71A C85G G141C | ≤ -4.2 |
| G25A U55A U135A | -3.79 |
| A41U G74A C103U C114U U134C | ≤ -4.2 |
| C57A U82A A121U G133C | -0.916 |
| C5G C103A G117A | -2.88 |
| U61A A89U | -0.941 |
| G140A | -2.67 |
| C8A A26G A37C G62A A120G G140C G152A | -4.13 |
| A73G C93U A110U | ≤ -4.2 |
| U33A G74A | ≤ -4.2 |
| C14U G67A G88A G136U | ≤ -4.2 |
| G88A A89G | -3.67 |
| A21G U55G G143C | -1.59 |
| C38A C87U A98G A106C C125A U135A C149A | ≤ -4.2 |
| G71A G86A | -3.5 |

| Variant | polymerase ribozyme fitness (log ratio) |
| --- | --- |
| U33G A39U C116A U130G | -3.98 |
| A22G C93U | -0.637 |
| U4C A17U G50U G58A G92C C99U G117U | ≤ -4.2 |
| A26U C51U A64U C125U | ≤ -4.2 |
| G83A C114U | -2.41 |
| A17G G62C G81A | -1.76 |
| G74U G88A A119U C125U | -3.95 |
| G11A G141U | 0.246 |
| C10U A37C C75U C95G | ≤ -4.2 |
| C10U C116U A147C | -3.39 |
| C85U A89U C105G | -1.55 |
| U104A A137C | -3.89 |
| C51A C57A C87U A98G U146G | -3.12 |
| G50U C96G | -0.544 |
| C54G C85U C99G | -3.45 |
| A30G G50U C75A U78C G94C | ≤ -4.2 |
| A52C G58A C93A C118U | -3.55 |
| U9G C85A | -3.76 |
| C76A C85U | -0.443 |
| U31A G84A G100A C108G C123G | ≤ -4.2 |
| U61G U77G G92A C96A G143U | ≤ -4.2 |
| A26C U82A A137G | -2.93 |
| A3U G81C | -0.0386 |
